Experiment in all cases: cell-based or functional assay
Assay [1] has as its target HIV-1 Env of pseudovirus T250-4 (HIV-1).
The target in assay [2] is HIV-1 envelope of pseudovirus Du422.1 (HIV-1).
The target in assay [3] is HIV-1 envelope of pseudovirus CAAN5342.A2 (HIV-1).
The target in assay [4] is HIV-1 Env of pseudovirus P1981_C5_3 (HIV-1).
Assay [5] deals with HIV-1 envelope glycoprotein of pseudovirus X1254_c3 (clade G) (HIV-1).
Assay [6] has as its target HIV-1 envelope glycoprotein of pseudovirus YU.2 (clade B) (HIV-1) (UniProt P35961).
Assay [7] addresses HIV-1 envelope glycoprotein of pseudovirus 62357_14_D3_4589 (clade B (T/F)) (HIV-1).
The target in assay [8] is HIV-1 envelope glycoprotein of pseudovirus Ce1086_B2 (clade C (T/F)) (HIV-1).
For assay [9], the target named is HIV-1 envelope glycoprotein of pseudovirus Q842.d12 (clade A) (HIV-1).
The target of assay [10] is HIV-1 envelope glycoprotein of pseudovirus PVO.4 (clade B) (HIV-1).
Assay [11] addresses HIV-1 envelope glycoprotein of pseudovirus T278-50 (clade CRF02 AG) (HIV-1).
Assay [12] concerns the target HIV-1 envelope glycoprotein of pseudovirus CNE19 (clade BC) (HIV-1).
Assay [13] addresses HIV-1 envelope glycoprotein of pseudovirus 6952.v1.c20 (clade CD) (HIV-1).
The target in assay [14] is HIV-1 envelope glycoprotein of pseudovirus 1394C9G1(Rev-) (clade C (T/F)) (HIV-1).
Assay [15] addresses HIV-1 envelope of pseudovirus ZM233M.PB6 (HIV-1).
Assay [16] concerns the target HIV-1 envelope glycoprotein of pseudovirus X1193 c1 (clade G) (HIV-1).
For assay [17], the target named is HIV-1 envelope glycoprotein of pseudovirus Ce1172_H1 (clade C (T/F)) (HIV-1).
The target in assay [18] is HIV-1 envelope glycoprotein of pseudovirus T251-18 (clade CRF02_AG) (HIV-1).
Assay [19] has as its target HIV-1 envelope glycoprotein of pseudovirus CNE17 (clade BC) (HIV-1).
For assay [20], the target named is HIV-1 envelope glycoprotein of pseudovirus 928-28 (clade CRF02_AG) (HIV-1).

Experimental findings from US12338277 are described below.

10-996 (antibody), sequence (VH): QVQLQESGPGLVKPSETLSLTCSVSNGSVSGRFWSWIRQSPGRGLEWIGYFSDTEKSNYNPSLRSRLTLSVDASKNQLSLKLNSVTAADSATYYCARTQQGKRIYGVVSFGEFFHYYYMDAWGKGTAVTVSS
10-996 (antibody), sequence (VL): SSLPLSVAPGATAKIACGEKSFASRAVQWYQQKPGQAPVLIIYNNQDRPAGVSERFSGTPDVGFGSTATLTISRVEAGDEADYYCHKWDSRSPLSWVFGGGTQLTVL
10-1074 (antibody), sequence (VH): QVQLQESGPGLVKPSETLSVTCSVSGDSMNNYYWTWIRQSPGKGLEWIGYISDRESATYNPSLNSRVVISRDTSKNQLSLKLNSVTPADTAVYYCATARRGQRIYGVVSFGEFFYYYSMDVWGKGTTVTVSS
10-1074 (antibody), sequence (V domain): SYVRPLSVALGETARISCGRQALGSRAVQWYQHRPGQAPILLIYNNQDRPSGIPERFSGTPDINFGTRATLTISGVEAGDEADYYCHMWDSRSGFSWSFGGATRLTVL
HIV-1 envelope glycoprotein of pseudovirus YU.2 (clade B) (HIV-1), sequence (P35961 32-843): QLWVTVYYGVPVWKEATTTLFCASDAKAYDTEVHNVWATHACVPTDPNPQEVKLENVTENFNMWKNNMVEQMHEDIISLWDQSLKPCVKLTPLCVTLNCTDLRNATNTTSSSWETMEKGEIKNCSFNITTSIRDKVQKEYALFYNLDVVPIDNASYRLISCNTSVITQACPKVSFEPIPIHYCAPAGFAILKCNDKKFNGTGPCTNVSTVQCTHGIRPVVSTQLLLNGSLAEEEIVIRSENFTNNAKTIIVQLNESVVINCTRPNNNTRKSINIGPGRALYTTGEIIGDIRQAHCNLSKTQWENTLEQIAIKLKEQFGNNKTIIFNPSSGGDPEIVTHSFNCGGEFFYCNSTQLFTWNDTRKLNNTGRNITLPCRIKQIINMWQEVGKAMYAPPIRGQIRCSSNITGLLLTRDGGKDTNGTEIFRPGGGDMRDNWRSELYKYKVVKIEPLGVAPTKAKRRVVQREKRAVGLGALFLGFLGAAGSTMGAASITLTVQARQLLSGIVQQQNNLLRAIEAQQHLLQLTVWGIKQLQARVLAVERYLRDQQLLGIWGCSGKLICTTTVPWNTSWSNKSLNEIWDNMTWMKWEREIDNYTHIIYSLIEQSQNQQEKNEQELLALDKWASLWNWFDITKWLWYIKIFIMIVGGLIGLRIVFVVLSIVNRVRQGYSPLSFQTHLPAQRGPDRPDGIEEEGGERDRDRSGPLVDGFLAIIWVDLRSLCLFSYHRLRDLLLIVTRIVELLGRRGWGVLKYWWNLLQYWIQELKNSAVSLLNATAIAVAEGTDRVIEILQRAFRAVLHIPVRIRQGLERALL

In the case of 10-996 (antibody), the IC80 (TZM-bl neutralization) in assay [1] is 0.005 µg/mL; in assay [4], 0.018 µg/mL. The values for the IC50 (TZM-bl neutralization) in [2] and in assay [3] were 0.056 µg/mL and 0.013 µg/mL, respectively.

Consider 10-1074 (antibody), for which the IC50 in the TZM-bl neutralization assay in [5] is 0.297 µg/mL; in assay [6], 0.398 µg/mL; in [7], over 50 µg/mL; in assay [8], over 50 µg/mL; in assay [9], over 50 µg/mL; in assay [10], 0.36 µg/mL. For the same substance, the IC50 in the TZM-bl neutralization assay was determined as 18.3 µg/mL in [11]; 50 µg/mL in [12]; 0.138 µg/mL in assay [13]; 0.191 µg/mL in assay [14]; 0.475 µg/mL in assay [16]; 0.166 µg/mL in assay [17]. For the same substance, the IC50 in the TZM-bl neutralization assay in assay [18] was found to be 7.39 µg/mL; in assay [19], 13.3 µg/mL; in assay [20] it was 4.7 µg/mL. Besides, the values for the IC80 (TZM-bl neutralization) in assay [1] and in assay [4] were 0.005 µg/mL and 0.017 µg/mL, respectively. Also, the IC50 (TZM-bl neutralization) amounted to 0.045 µg/mL in [2], 0.007 µg/mL in [3] and 0.06 µg/mL in [15].

In the case of PGT121 (antibody), the IC50 in the TZM-bl neutralization assay in assay [5] worked out at 0.199 µg/mL; in [6], 0.356 µg/mL; in assay [7], 45.6 µg/mL; in assay [8] it was 0.006 µg/mL; in assay [9], 0.074 µg/mL; in assay [10], 0.945 µg/mL. Moreover, the IC50 in the TZM-bl neutralization assay in [11] was over 50 µg/mL; in [12] it was 0.189 µg/mL; in assay [13] it was 0.605 µg/mL; in [14], 3.37 µg/mL; in assay [16], 0.202 µg/mL; in assay [17], 0.088 µg/mL. Moreover, the IC50 in the TZM-bl neutralization assay in assay [18], in assay [19] and in assay [20] was over 50 µg/mL in each case. In assay [15], the IC50 (TZM-bl neutralization) turned out to be 1.45 µg/mL.
